Data set [1] is described as follows: SAXS and cryo‐TEM (fibril formation). The format is physicochemical. The note with it: 1 wt% aqueous solution. Here is the method: Interrogation of the structure of peptide‐adjuvant constructs 2 and 3 was performed using CD spectroscopy as well as modelling studies (PEP‐FOLD). […] Fibril formation by α‐helical peptides is typically observed due to lateral association of coiled‐coils. Here, this may play a role, although lateral interaction of the hydrophobic alkyl chains is likely to be the essential driver for the fibril formation. The fibril core radius 14.0–18.5 Å from SAXS (Table S1) is consistent with the length of an extended Pam lipid chain. […]
windows, with 0.01 mm path length. Spectra were measured using a 0.5 nm step, 1 nm bandwidth and 1 s collection time per step, and a range of 180 to 280 nm. […]
The residue of the calculation was chosen to oscillate around the average, to avoid artifacts in the smoothed curve. CD data, measured in mdeg, was normalized to molar ellipticity using the molar concentration of the sample and the cell path length.
Cryogenic-TEM (Cryo-TEM) Imaging was carried out using a field emission cryo-electron microscope (JEOL JEM-3200FSC), operating at 200 kV. […] The micrographs were recorded using a Gatan Ultrascan 4000 CCD camera. […] Vitrified specimens were prepared using an automated FEI Vitrobot device using Quantifoil 3.5/1 holey carbon copper 200 mesh grids with a hole size of 3.5 µm and […]. […]

Data set [2] in a line: Circular dichroism (secondary structure). In kind it is physicochemical. On the procedure: CysBAGE4‐MalLNP and 2‐LNP formulations were analysed using DLS, circular dichroism (CD), and TEM. DLS analysis: CysBAGE4‐MalLNP and 2‐LNP formulations were diluted with Milli‐Q water and transferred to disposable cuvettes before measurement at 25°C with a 173° light scattering angle, […]. CD analysis: CysBAGE4‐MalLNP and 2‐LNP formulations were diluted with Milli‐Q water and analysed using a quartz cell with a 0.01 mm path length. Spectra were measured using a 0.5 nm step, 1 nm bandwidth and 1 s collection time per step. […]
NMR samples were analysed on either a Bruker AVIII 400 NMR system (1H-NMR frequency 400 MHz; 13C-NMR frequency 101 MHz) or a Bruker 500 MHz system (1H-NMR frequency 500 MHz; 13C-NMR frequency 125 MHz). […]
High-resolution mass spectra were recorded on a Bruker MicroTOF Focus II MS (ESI) operating in positive or negative ionisation mode. […]
Peptides were analyzed using a Waters Sunfire 5 μm, 2.1 x 150 mm column (C-18) at a flow rate of 0.6 mL/min. […]
Dynamic Light Scattering (DLS) Spectra were recorded using a Zetasizer Nano ZS (Malvern Panalytical) to measure the particle size and charge. […]
Circular Dichroism (CD) Spectra were recorded using a Chirascan spectropolarimeter (Applied Photophysics, U.K.). […]
windows, with 0.01 mm path length. Spectra were measured using a 0.5 nm step, 1 nm […]

Entries after “also recorded” stand apart in the source; their conditions may differ.

For “3: vaccine‐adjuvant construct Pam2Cys‐SK4‐NY‐ESO‐1_157‐165 [compound 3]”, the Fibril formation result in data set [1] is listed as “also formed fibrils; also recorded: indicate the formation of fibrils”. The “α‐helical character (f α)” value in data set [2] (CD spectra, Figures S12 and S13) is reported as 0.41. For the same substance, the “Secondary structure (in words)” value in data set [2] (CD, 0.01 mm path length, 180–280 nm) is reported as “form α‐helical structures; also recorded: significantly more α‐helical character”.

The record behind these values is publication PMC12053792 (Journal of Peptide Science, 2025).
